Data taken from patent publication US20250313605A1.
*1 amine or outer side, *2 acyl side, *3 side chain or, on linkers, in order; H or OH if unused. Where no end group is shown, it is not given here. Side-chain parts run from the residue outwards. [ ]: non-standard residue; d: D form. The star is where a group is joined. C20 diacid = O=C(O)CCCCCCCCCCCCCCCCCCC(=O)*; γGlu = O=C(O)[C@H](CCC(=O)[*:2])N[*:1]; αMeL = CC(C)C[C@](C)(N)C(=O)O; αMeK = C[C@](N)(CCCCN)C(=O)O; AEEA = NCCOCCOCC(=O)O; Aib = CC(C)(N)C(=O)O

T1: human GLP-1 receptor (human), P43220
T1 chain: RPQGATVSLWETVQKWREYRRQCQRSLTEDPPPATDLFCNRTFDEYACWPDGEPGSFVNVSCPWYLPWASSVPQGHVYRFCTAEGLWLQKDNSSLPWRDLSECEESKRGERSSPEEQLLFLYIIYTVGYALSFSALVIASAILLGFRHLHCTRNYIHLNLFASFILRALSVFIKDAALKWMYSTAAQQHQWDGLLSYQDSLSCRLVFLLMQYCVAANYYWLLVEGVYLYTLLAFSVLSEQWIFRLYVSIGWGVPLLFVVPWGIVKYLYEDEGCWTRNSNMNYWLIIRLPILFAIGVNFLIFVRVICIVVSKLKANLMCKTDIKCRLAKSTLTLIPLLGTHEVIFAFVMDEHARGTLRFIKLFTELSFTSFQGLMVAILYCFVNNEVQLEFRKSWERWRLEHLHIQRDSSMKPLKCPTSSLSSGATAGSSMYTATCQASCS

T2: human GIP receptor (human), P48546
T2 chain: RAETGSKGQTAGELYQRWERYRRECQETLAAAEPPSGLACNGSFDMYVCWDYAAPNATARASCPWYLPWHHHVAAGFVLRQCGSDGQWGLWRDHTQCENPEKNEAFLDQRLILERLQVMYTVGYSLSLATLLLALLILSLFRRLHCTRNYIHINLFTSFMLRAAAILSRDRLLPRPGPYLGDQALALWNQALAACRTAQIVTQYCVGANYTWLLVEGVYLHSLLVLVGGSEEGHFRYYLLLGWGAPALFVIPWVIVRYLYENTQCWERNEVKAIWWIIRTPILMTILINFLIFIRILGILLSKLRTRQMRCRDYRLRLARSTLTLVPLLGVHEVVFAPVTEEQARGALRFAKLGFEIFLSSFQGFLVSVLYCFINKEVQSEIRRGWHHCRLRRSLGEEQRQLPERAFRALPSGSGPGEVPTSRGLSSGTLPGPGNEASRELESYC

B1: Example 8 (peptide)
peptide: Y[Aib]QGTFTSDYSILLDKK([AEEA-AEEA-γGlu-C20 diacid])AQ[αMeK]AFIEYLLEGGPSSGAPPPS-NH2
modifications: N-terminus assumed
SMILES: CC[C@H](C)[C@H](NC(=O)[C@H](Cc1ccccc1)NC(=O)[C@H](C)NC(=O)[C@](C)(CCCCN)NC(=O)[C@H](CCC(N)=O)NC(=O)[C@H](C)NC(=O)[C@H](CCCCNC(=O)COCCOCCNC(=O)COCCOCCNC(=O)CC[C@H](NC(=O)CCCCCCCCCCCCCCCCCCC(=O)O)C(=O)O)NC(=O)[C@H](CCCCN)NC(=O)[C@H](CC(=O)O)NC(=O)[C@H](CC(C)C)NC(=O)[C@H](CC(C)C)NC(=O)[C@@H](NC(=O)[C@H](CO)NC(=O)[C@H](Cc1ccc(O)cc1)NC(=O)[C@H](CC(=O)O)NC(=O)[C@H](CO)NC(=O)[C@@H](NC(=O)[C@H](Cc1ccccc1)NC(=O)[C@@H](NC(=O)CNC(=O)[C@H](CCC(N)=O)NC(=O)C(C)(C)NC(=O)[C@@H](N)Cc1ccc(O)cc1)[C@@H](C)O)[C@@H](C)O)[C@@H](C)CC)C(=O)N[C@@H](CCC(=O)O)C(=O)N[C@@H](Cc1ccc(O)cc1)C(=O)N[C@@H](CC(C)C)C(=O)N[C@@H](CC(C)C)C(=O)N[C@@H](CCC(=O)O)C(=O)NCC(=O)NCC(=O)N1CCC[C@H]1C(=O)N[C@@H](CO)C(=O)N[C@@H](CO)C(=O)NCC(=O)N[C@@H](C)C(=O)N1CCC[C@H]1C(=O)N1CCC[C@H]1C(=O)N1CCC[C@H]1C(=O)N[C@@H](CO)C(N)=O
B2: Example 9 (peptide)
peptide: Y[Aib]QGTFTSDYSI[αMeL]LDKK([γGlu-γGlu-C20 diacid])AQHAFIEYLLEGGPSSGAPPPS-NH2
modifications: N-terminus assumed
SMILES: CC[C@H](C)[C@H](NC(=O)[C@H](Cc1ccccc1)NC(=O)[C@H](C)NC(=O)[C@H](Cc1c[nH]cn1)NC(=O)[C@H](CCC(N)=O)NC(=O)[C@H](C)NC(=O)[C@H](CCCCNC(=O)CC[C@H](NC(=O)CC[C@H](NC(=O)CCCCCCCCCCCCCCCCCCC(=O)O)C(=O)O)C(=O)O)NC(=O)[C@H](CCCCN)NC(=O)[C@H](CC(=O)O)NC(=O)[C@H](CC(C)C)NC(=O)[C@](C)(CC(C)C)NC(=O)[C@@H](NC(=O)[C@H](CO)NC(=O)[C@H](Cc1ccc(O)cc1)NC(=O)[C@H](CC(=O)O)NC(=O)[C@H](CO)NC(=O)[C@@H](NC(=O)[C@H](Cc1ccccc1)NC(=O)[C@@H](NC(=O)CNC(=O)[C@H](CCC(N)=O)NC(=O)C(C)(C)NC(=O)[C@@H](N)Cc1ccc(O)cc1)[C@@H](C)O)[C@@H](C)O)[C@@H](C)CC)C(=O)N[C@@H](CCC(=O)O)C(=O)N[C@@H](Cc1ccc(O)cc1)C(=O)N[C@@H](CC(C)C)C(=O)N[C@@H](CC(C)C)C(=O)N[C@@H](CCC(=O)O)C(=O)NCC(=O)NCC(=O)N1CCC[C@H]1C(=O)N[C@@H](CO)C(=O)N[C@@H](CO)C(=O)NCC(=O)N[C@@H](C)C(=O)N1CCC[C@H]1C(=O)N1CCC[C@H]1C(=O)N1CCC[C@H]1C(=O)N[C@@H](CO)C(N)=O

Experiments:
[1] = target: T1, human GLP-1 receptor (human), P43220; test: cell-based or functional assay
[2] = target: T2, human GIP receptor (human), P48546; test: cell-based or functional assay
[3] = target: human glucagon receptor (human), P47871; test: cell-based or functional assay
[4] = target: T1, human GLP-1 receptor (human), P43220; test: radioligand competition SPA, HEK293 membranes
[5] = target: T2, human GIP receptor (human), P48546; test: radioligand competition SPA, HEK293 membranes
[6] = target: human glucagon receptor (human), P47871; test: radioligand competition SPA, HEK293 membranes

human glucagon receptor (human), P47871, sequence (P47871 26-477): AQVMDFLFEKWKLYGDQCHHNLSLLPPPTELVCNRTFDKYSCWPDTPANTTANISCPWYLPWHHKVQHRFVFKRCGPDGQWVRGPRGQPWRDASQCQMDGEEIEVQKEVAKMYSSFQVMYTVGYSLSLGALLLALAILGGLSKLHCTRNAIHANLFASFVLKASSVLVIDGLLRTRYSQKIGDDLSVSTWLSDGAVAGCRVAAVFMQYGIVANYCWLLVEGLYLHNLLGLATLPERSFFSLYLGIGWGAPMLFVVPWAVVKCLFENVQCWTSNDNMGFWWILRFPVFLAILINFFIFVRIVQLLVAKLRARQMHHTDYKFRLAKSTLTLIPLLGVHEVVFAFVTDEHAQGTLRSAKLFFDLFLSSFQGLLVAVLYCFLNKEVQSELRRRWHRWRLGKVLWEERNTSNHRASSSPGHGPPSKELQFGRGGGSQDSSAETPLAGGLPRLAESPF

| Binder | cAMP EC50 (0.1% casein) [1] | cAMP EC50 (FBS and BSA present) [1] | cAMP EC50 (0.1% casein) [2] | cAMP EC50 (FBS and BSA present) [2] | cAMP EC50 (0.1% casein) [3] | cAMP EC50 (FBS and BSA present) [3] | Ki [4] | Ki [5] | Ki [6] |
| --- | --- | --- | --- | --- | --- | --- | --- | --- | --- |
| B1 | 0.117 nM | 9.39 nM | 0.114 nM | 2.23 nM | 0.12 nM | 6.24 nM | 29.4 nM | 0.0958 nM | 30.4 nM |
| B2 | 0.0931 nM | 9.76 nM | 0.0522 nM | 4.17 nM | 0.139 nM | 6.32 nM | 11.5 nM | 0.126 nM | 8.27 nM |
| Y[Aib]QGTFTSDYSI[αMeL]LDKK([AEEA-γGlu-C20 diacid])AQHAFIEYLLEGGPSSGAPPPS-NH2 [Example 10] | 0.143 nM | 19.3 nM | 0.0928 nM | 4.3 nM | 0.123 nM | 8.42 nM | 12 nM | 0.118 nM | 7.37 nM |
